Measurements published in patent publication US20060183159A1, “Method for engineering a protein by in vitro coevolution” (priority 2005, published 2006).
“Also recorded” adds a separate entry of the source.

Legend:
[1] = test system: corticosterone; assay: Yeast two-hybrid based cell growth assay, response to corticosterone; conditions: in yeast; corticosterone 10^−4 M, 24 hours (up to four days at 30° C.)
Experimental: (§1) A yeast two-hybrid based cell growth assay was used to quantify the ligand activity of the wild-type and mutant hERαLBD in 96-well plates (Chen, et al. (2004) supra). Briefly, yeast cells harboring the plasmid containing the target hERαLBD and plasmid pGAD424 SRC-1 were grown to saturation (OD600 4-5) in 2-3 mL minimal medium lacking tryptophan and leucine, and then diluted to OD600 0.002 using minimal medium lacking tryptophan, leucine and histidine. Each well contained 200 μL diluted yeast cells and 0.2 μL of specified ligand dissolved in 100% ethanol (E2, testosterone, and progesterone) or DMSO (corticosterone). The 96-well plates were incubated at 30° C. for 24 hours and the cell density was measured at 600 nm using a SPECTRAMAX® plate reader (Molecular Devices, Sunnyvale, Calif.).

[2] = Competitive binding (RBA) with 2 nM [3H]-E2, progesterone
[3] = Scatchard analysis of E2 binding to wild-type and mutant hERαLBD proteins; conditions: n = 2-3, error = range (n = 2) or S.E. (n > 2)
[4] = test system: progesterone; assay: Yeast two-hybrid based cell growth assay, response to progesterone; conditions: in yeast; saturating ligand concentration 10^−5 M
Experimental: as §1

[5] = Competitive binding (RBA) with 2 nM [3H]-E2, corticosterone
[6] = Competitive binding (RBA) with 2 nM [3H]-E2, testosterone
[7] = RBA = EC50^E2/EC50^ligand × 100, 2 nM [3H]-E2

B1: Pg10-1: hERαLBD variant with Glu353Gln, Gly390Asp, His524Asn, Leu536His, Thr585Ser (SEQ ID NOs:11 and 12) (protein)
chain: MTMTLHTKASGMALLHQIQGNELEPLNRPQLKIPLERPLGEVYLDSSKPAVYNYPEGAAYEFNAAAAANAQVYGQTGLPYGPGSEAAAFGSNGLGGFPPLNSVSPSPLMLLHPPPQLSPFLQPHGQQVPYYLENEPSGYTVREAGPPAFYRPNSDNRRQGGRERLASTNDKGSMAMESAKETRYCAVCNDYASGYHYGVWSCEGCKAFFKRSIQGHNDYMCPATNQCTIDKNRRKSCQACRLRKCYEVGMMKGGIRKDRRGGRMLKHKRQRDDGEGRGEVGSAGDMRAANLWPSPLMIKRSKKNSLALSLTADQMVSALLDAEPPILYSEYDPTRPFSEASMMGLLTNLADRQLVHMINWAKRVPGFVDLTLHDQVHLLECAWLEILMIDLVWRSMEHPGKLLFAPNLLLDRNQGKCVEGMVEIFDMLLATSSRFRMMNLQGEEFVCLKSIILLNSGVYTFLSSTLKSLEEKDHIHRVLDKITDTLIHLMAKAGLTLQQQHQRLAQLLLILSHIRHMSNKGMENLYSMKCKNVVPHYDLLLEMLDAHRLHAPTSRGGASVEETDQSHLATAGSTSSHSLQKYYISGEAEGFPATV
response to corticosterone [1]: significant responses to corticosterone; also recorded: responded to corticosterone at submillimolar concentrations
RBA Pg (progesterone) [2, 7]: 0.679 ± 0.021 (3)
Kd ([2]; calculated with Kd^ligand = (Kd^E2/RBA) × 100, read-out: Kd Pg (progesterone)): 119 nM
Kd [3]: 0.81 ± 0.23 nM
response to progesterone [4]: responses to progesterone at nanomolar concentrations
RBA Cs (corticosterone) [5, 7]: 0.008 ± 0.001 (3)
Kd ([5]; calculated with Kd^ligand = (Kd^E2/RBA) × 100, read-out: Kd Cs (corticosterone)): 10300 nM
RBA T (testosterone) [6, 7]: 0.21 ± 0.06 (3)
Kd ([6]; calculated with Kd^ligand = (Kd^E2/RBA) × 100, read-out: Kd T (testosterone)): 388 nM
